Publication PMC4402515 (Nucleic Acids Research, 2015)

B1: SFPQ-276–535 (domain or fragment)
chain: EGFKANLSLLRRPGEKTYTQRCRLFVGNLPADITEDEFKRLFAKYGEPGEVFINKGKGFGFIKLESRALAEIAKAELDDTPMRGRQLRVRFATHAAALSVRNLSPYVSNELLEEAFSQFGPIERAVVIVDDRGRSTGKGIVEFASKPAARKAFERCSEGVFLLTTTPRPVIVEPLEQLDDEDGLPEKLAQKNPMYQKERETPPRFAQHGTFEYEYSQRWKSLDEMEKQQREQVEKNMKDAKDKLESEMEDAYHEHQANLL
B2: SFPQ-369–598 (domain or fragment)
chain: HAAALSVRNLSPYVSNELLEEAFSQFGPIERAVVIVDDRGRSTGKGIVEFASKPAARKAFERCSEGVFLLTTTPRPVIVEPLEQLDDEDGLPEKLAQKNPMYQKERETPPRFAQHGTFEYEYSQRWKSLDEMEKQQREQVEKNMKDAKDKLESEMEDAYHEHQANLLRQDLMRRQEELRRMEELHNQEMQKRKEMQLRQEEERRRREEEMMIRQREMEEQMRRQREESYS
B3: SFPQ-276–598 (domain or fragment)
chain: EGFKANLSLLRRPGEKTYTQRCRLFVGNLPADITEDEFKRLFAKYGEPGEVFINKGKGFGFIKLESRALAEIAKAELDDTPMRGRQLRVRFATHAAALSVRNLSPYVSNELLEEAFSQFGPIERAVVIVDDRGRSTGKGIVEFASKPAARKAFERCSEGVFLLTTTPRPVIVEPLEQLDDEDGLPEKLAQKNPMYQKERETPPRFAQHGTFEYEYSQRWKSLDEMEKQQREQVEKNMKDAKDKLESEMEDAYHEHQANLLRQDLMRRQEELRRMEELHNQEMQKRKEMQLRQEEERRRREEEMMIRQREMEEQMRRQREESYS
B4: SFPQ-276–598/NONO-53–312 heterodimer (complex)
chain 1: B3 chain
chain 2: EGLTIDLKNFRKPGEKTFTQRSRLFVGNLPPDITEEEMRKLFEKYGKAGEVFIHKDKGFGFIRLETRTLAEIAKVELDNMPLRGKQLRVRFACHSASLTVRNLPQYVSNELLEEAFSVFGQVERAVVIVDDRGRPSGKGIVEFSGKPAARKALDRCSEGSFLLTTFPRPVTVEPMDQLDDEEGLPEKLVIKNQQFHKEREQPPRFAQPGSFEYEYAMRWKALIEMEKQQQDQVDRNIKEAREKLEMEMEAARHEHQVMLM

Assays:
[1] = biological target: the molecule itself; experiment: crystal structure
[2] = biological target: the molecule itself; experiment: SAXS

Protein | stoichiometry N [1] | binding result [2]
B1 | 2 | –
B2 | 2 | –
B3 | 2 | –
B4 | – | binds
